Data set [1] concerns the target fusion protein between subunit 9 of F0/F1-ATPase and DHFR.
Data set [2] addresses T1, hSIRT3-FLAG, full-length 44 kDa form.
T1 chain: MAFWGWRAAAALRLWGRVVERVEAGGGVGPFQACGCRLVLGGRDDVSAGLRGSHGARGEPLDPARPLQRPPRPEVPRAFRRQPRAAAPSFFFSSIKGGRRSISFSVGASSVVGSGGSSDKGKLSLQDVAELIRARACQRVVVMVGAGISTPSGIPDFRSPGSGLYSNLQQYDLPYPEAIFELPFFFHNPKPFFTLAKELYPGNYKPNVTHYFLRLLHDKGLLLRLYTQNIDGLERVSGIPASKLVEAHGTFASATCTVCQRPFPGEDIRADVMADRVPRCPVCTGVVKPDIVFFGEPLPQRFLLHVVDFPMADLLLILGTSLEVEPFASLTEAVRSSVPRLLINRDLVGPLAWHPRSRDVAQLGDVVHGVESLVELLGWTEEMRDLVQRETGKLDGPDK

Another data set addresses T2, hSIRT3R99/100G-FLAG.
T2 chain: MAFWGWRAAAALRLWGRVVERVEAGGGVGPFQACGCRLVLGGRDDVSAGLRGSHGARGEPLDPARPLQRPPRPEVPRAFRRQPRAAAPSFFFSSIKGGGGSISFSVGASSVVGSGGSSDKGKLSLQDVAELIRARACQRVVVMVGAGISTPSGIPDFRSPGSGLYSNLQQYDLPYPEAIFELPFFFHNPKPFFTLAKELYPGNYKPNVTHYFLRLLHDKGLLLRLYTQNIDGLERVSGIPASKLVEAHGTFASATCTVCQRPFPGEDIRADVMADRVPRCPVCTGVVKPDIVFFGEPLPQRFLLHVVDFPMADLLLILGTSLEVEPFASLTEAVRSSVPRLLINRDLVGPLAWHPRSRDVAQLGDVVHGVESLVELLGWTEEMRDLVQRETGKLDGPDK

Data set [3] concerns the target other hSIRT3 mutants targeting arginine residues at positions 133, 135, 139 and 158.

B1: purified recombinant yeast MPP (protein)
chain 1: ARTDNFKLSSLANGLKVATSNTPGHFSALGLYIDAGSRFEGRNLKGCTHILDRLAFKSTEHVEGRAMAETLELLGGNYQCTSSRENLMYQASVFNQDVGKMLQLMSETVRFPKITEQELQEQKLSAEYEIDEVWMKPELVLPELLHTAAYSGETLGSPLICPRELIPSISKYYLLDYRNKFYTPENTVAAFVGVPHEKALELTEKYLGDWQSTHPPITKKVAQYTGGESCIPPAPVFGNLPELFHIQIGFEGLPIDHPDIYALATLQTLLGGGGSFSAGGPGKGMYSRLYTHVLNQYYFVENCVAFNHSYSDSGIFGISLSCIPQAAPQAVEVIAQQMYNTFANKDLRLTEDEVSRAKNQLKSSLLMNLESKLVELEDMGRQVLMHGRKIPVNEMISKIEDLKPDDISRVAEMIFTGNVNNAGNGKGRATVVMQGDRGSFGDVENVLKAYGLGNSSSSKNDSPKKKGWF
chain 2: SQIPGTRTSKLPNGLTIATEYIPNTSSATVGIFVDAGSRAENVKNNGTAHFLEHLAFKGTQNRSQQGIELEIENIGSHLNAYTSRENTVYYAKSLQEDIPKAVDILSDILTKSVLDNSAIERERDVIIRESEEVDKMYDEVVFDHLHEITYKDQPLGRTILGPIKNIKSITRTDLKDYITKNYKGDRMVLAGAGAVDHEKLVQYAQKYFGHVPKSESPVPLGSPRGPLPVFCRGERFIKENTLPTTHIAIALEGVSWSAPDYFVALATQAIVGNWDRAIGTGTNSPSPLAVAASQNGSLANSYMSFSTSYADSGLWGMYIVTDSNEHNVQLIVNEILKEWKRIKSGKISDAEVNRAKAQLKAALLLSLDGSTAIVEDIGRQVVTTGKRLSPEEVFEQVDKITKDDIIMWANYRLQNKPVSMVALGNTSTVPNVSYIEEKLNQ
As to B1, the “cleavage by MPP in vitro” value is “resulted in the appearance of digestion products similar to what has been previously reported” in data set [1], “led to its cleavage to a product of ˜28 KDa” in data set [2], “showed abrogation of cleavage by MPP in vitro” with hSIRT3R99/100G-FLAG and “other mutants were unaffected” in data set [3].

These data come from patent US20040091953.
